The chains are these.
B2: XIAP-BIR3 (residues 238-358) (other, mammalian, UniProt P98170 238-358, looked up)
chain: RSESDAVSSDRNFPNSTNLPRNPSMADYEARIFTFGTWIYSVNKEQLARAGFYALGEGDKVKCFHCGGGLTDWKPSEDPWEQHAKWYPGCKYLLEQKGQEYINNIHLTHSLEECLVRTTEK
notes: Overexpressed as a GST fusion (pGEX-2T) and purified as in Chai et al. 2000; also called BIR3 domain of XIAP; third BIR domain of XIAP

Data set [1] concerns the target T1, DIAP1-BIR1 (residues 1-145) (Drosophila, UniProt Q24306 1-145).
T1 construct: range 1-145; Expressed as a GST fusion; the GST moiety was removed by thrombin cleavage; also called BIR1 domain of DIAP1
T1 sequence (looked up): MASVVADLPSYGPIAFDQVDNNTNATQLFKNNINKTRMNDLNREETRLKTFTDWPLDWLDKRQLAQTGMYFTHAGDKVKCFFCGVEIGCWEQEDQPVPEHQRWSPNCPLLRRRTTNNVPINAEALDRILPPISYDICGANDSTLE
Description: gel filtration of BIR domain with excess peptide, then reverse phase HPLC and mass spectroscopy. The method, then: (§1) In vitro interaction assay. […] The mixture was fractionated by gel filtration chromatography (Superdex-200, Pharmacia). The protein-containing fractions were analyzed by reverse phase HPLC and mass spectroscopy for detection of the bound peptide.
(In general: SEC sorts molecules by how far they enter the pores of the column.)

Data set [2] has as its target B2. The data set is described as follows: isothermal titration calorimetry.
In data set [3] the target is T2, DIAP1-BIR2 (residues 201-325) (Drosophila, UniProt Q24306 201-325).
T2 construct: range 201-325; Expressed as a GST fusion; the GST moiety was removed by thrombin cleavage; also called BIR2 domain of DIAP1; DIAP-BIR2
T2 sequence (looked up): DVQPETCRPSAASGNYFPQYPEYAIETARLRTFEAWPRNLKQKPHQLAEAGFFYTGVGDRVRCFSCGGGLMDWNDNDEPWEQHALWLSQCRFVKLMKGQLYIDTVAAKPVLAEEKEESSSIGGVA
The data set is described as follows: gel filtration and mass spectroscopic analyses (data not shown). The method, then:
as §1
Rationale and structure determination.

For data set [4], the target named is T2, DIAP1-BIR2 (residues 201-325). Description: isothermal titration calorimetry, 23 °C. The method, then:
Isothermal microcalorimetry titration. All proteins and peptides was prepared in 50 mM sodium phosphate buffer, pH 7.5. The Micro Calorimetry System (Microcal, Amherst, Mass.) was used to perform the ITC measurements for the interaction between DIAP1-BIR2 and various synthetic peptides. The titration data, collected at 23° C., were analyzed using the ORIGIN data analysis software (Microcal Software, Northampton, Mass.).
For orientation: Isothermal titration calorimetry measures the heat released or taken up as one component is titrated into another.

For data set [5], the target named is T3, XIAP-BIR3 (residues 238-358), P98170.
T3 chain: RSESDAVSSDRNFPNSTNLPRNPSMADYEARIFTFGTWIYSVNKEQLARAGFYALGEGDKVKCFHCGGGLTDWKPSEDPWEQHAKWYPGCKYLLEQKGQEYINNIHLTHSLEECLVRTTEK

The target in data set [6] is T4, Smac (Phe33Asp, residues 1-162), monomeric mutant (human, UniProt Q9NR28 56-217, A selenomethionyl form (Met replaced by Se-Met) was used only for phasing. The native crystals hold the plain protein.).
T4 construct: Residues 1-162 and position 33 count on mature Smac, not on the precursor entry; Expressed in E. coli from pET-3d for crystallisation; a selenomethionyl form was used for phasing; also called mutant Smac protein; monomeric Smac protein
T4 sequence: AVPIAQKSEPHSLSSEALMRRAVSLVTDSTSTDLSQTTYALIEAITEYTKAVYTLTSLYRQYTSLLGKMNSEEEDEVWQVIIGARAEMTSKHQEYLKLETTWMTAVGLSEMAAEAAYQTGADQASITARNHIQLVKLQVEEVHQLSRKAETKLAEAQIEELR
Description: reconstituted binary complex, in solution and co-crystallised.
Description: Crystallization and data collection. […] At 23° C., the reservoir contained 100 mM citrate buffer, pH 5.5, 5% PEG 4000, and 10% isopropanol. Crystals appeared after 1–4 days and reached a maximum size over a period of 1–3 weeks. Both crystals are in the triclinic space group P1 and contain two complexes in each unit cell. […] Diffraction data were primarily collected using an R-AXIS-IV imaging plate detector mounted on a Rigaku 200HB generator. Derivatives were obtained by soaking crystals in reservoir buffer containing 20% glycerol (v/v) and heavy atoms. The concentration and soaking time for mercury thimerosal were 1 mM and 20 hours, respectively. To collect data at −170° C., crystals were equilibrated in a cryoprotectant buffer containing reservoir buffer plus 20% glycerol (v/v) and were flash frozen in a cold nitrogen stream. The high-resolution native data were collected at the NSLS beamline X4A.

As for AIAYFIPDQA [10-residue Grim peptide (N-terminal peptide of Grim)], the binding result in data set [1] is recorded as “no binding”; in data set [2] it was “binds”; in data set [3] it was “binds”.

Take AVPFYLPEGG [10-residue Hid peptide (N-terminal peptide of Hid)]: the “fold higher binding affinity than the Grim peptide” value in data set [4] is 6 fold. In data set [1], the binding result is “no binding”. In data set [2], the “fold difference in binding affinity between the Hid and Grim peptides” value is roughly 100 fold.

B1: caspase-9 (protein)
chain: MDEADRRLLRRCRLRLVEELQVDQLWDALLSRELFRPHMIEDIQRAGSGSRRDQARQLIIDLETRGSQALPLFISCLEDTGQDMLASFLRTNRQAAKLSKPTLENLTPVVLRPEIRKPEVLRPETPRPVDIGSGGFGDVGALESLRGNADLAYILSMEPCGHCLIINNVNFCRESGLRTRTGSNIDCEKLRRRFSSLHFMVEVKGDLTAKKMVLALLELAQQDHGALDCCVVVILSHGCQASHLQFPGAVYGTDGCPVSVEKIVNIFNGTSCPSLGGKPKLFFIQACGGEQKDHGFEVASTSPEDESPGSNPEPDATPFQEGLRTFDQLDAISSLPTPSDIFVSYSTFPGFVSWRDPKSGSWYVETLDDIFEQWAHSEDLQSLLLRVANAVSVKGIYKQMPGCFNFLRKKLFFKTS
In the case of B1, the “caspase-9 activity (cleavage of Ac-LEHD-AFC), direct assay” value in data set [5] is listed as “the inhibition of caspase-9 by the BIR3 domain of XIAP”.

With B2, the binding result in data set [6] is reported as “binds”.

The values are drawn from patent US6992063 (TRUSTEES OF PRINCETON UNIVERSITY, dated 2006).
